Laboratory results taken from patent publication US20210371529A1 (Innovent, published 2021).
Numbering of substitutions follows the chain as printed.

T1: LAG-3 on activated human CD4+ T cells (human, UniProt P18627 23-525)
T1 construct: whole, on cells; also called endogenous LAG-3
T1 sequence (looked up): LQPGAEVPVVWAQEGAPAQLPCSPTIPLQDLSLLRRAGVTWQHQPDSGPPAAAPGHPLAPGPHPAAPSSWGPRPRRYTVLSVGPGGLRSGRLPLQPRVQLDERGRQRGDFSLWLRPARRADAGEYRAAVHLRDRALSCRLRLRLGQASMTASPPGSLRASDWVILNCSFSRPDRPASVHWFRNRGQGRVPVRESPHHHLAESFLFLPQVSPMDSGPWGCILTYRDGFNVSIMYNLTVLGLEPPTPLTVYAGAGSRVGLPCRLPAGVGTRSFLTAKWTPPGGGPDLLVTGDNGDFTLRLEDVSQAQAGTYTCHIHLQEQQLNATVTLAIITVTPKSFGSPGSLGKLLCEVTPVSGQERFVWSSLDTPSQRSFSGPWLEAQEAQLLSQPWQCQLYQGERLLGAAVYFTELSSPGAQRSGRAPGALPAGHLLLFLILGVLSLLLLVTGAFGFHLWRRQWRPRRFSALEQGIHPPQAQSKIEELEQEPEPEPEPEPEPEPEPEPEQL

T2: human LAG-3-His (human, UniProt P18627 23-450)
T2 construct: Bought antigen (ArcoBiosystems), 100 nM in solution in the ForteBio assay; also called human LAG-3 antigen (ArcoBiosystems); hLAG-3; not shown: His tag
T2 sequence (looked up): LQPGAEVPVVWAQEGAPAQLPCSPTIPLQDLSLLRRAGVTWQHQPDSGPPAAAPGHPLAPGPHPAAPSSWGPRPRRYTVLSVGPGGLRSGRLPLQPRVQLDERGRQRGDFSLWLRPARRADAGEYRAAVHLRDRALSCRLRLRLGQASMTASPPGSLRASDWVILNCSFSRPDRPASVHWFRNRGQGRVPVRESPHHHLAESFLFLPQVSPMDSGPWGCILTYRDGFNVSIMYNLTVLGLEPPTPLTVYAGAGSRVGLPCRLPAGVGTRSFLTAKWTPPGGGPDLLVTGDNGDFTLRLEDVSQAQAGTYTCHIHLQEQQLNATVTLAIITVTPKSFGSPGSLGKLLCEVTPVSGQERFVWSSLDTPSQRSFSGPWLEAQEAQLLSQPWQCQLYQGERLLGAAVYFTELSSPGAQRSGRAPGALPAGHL

T3: human LAG-3 overexpressed on HEK293 cells (human, UniProt P18627 23-525)
T3 construct: whole, on cells; also called 293-hLAG-3 cells; hLAG-3 on the cell surface
T3 sequence (looked up): T1 sequence (looked up)

B1: ADI-31851 (antibody, human IgG4 S228P, kappa, F234A L235A, V domains shown)
VH: QLQLQESGPGLVKPSETLSLTCTVSGGSISSPDYYWGWIRQPPGKGLEWIGSIVYSGYTYYNPSLKSRVTISVDTSKNQFSLKLSSVTAADTAVYYCARVRTWDQSFDIWGQGTMVTVSS
VL: DIQMTQSPSSLSASVGDRVTITCQAGQDISNYLNWYQQKPGKAPKLLIYDASNLETGVPSRFSGSGSGTDFTFTISSLQPEDIATYYCQQVLELPPWTFGGGTKVEIKR
notes: IgG4 heavy chain constant region with kappa light chain; expressed in HEK293 cells
B2: ADI-31853 (antibody, human IgG4 S228P, kappa, F234A L235A, V domains shown)
VH: B1 VH with S30Y, P32E, D33S, Q105A, S106A
VL: B1 VL with G26S
notes: as for B1

Tests used:
[1] = target: T1, LAG-3 on activated human CD4+ T cells; experiment: flow cytometry on activated human CD4+ T cells, MFI curve
Experimental: CD4+ T cell isolation: This was performed according to the ‘Untouched CD4+ T cell isolation’ kit instructions (11346D, Invitrogen). PBMCs were left for 2 h before the cell suspension was pipetted into a 15-mL centrifugation tube. The cells were centrifuged at 200 g for 10 min, and the precipitate was resuspended with 500 μL of a separating medium, 100 μL of AB type serum and 100 μL of purified antibody. The mixture was incubated for 20 min at 4° C., and washed once with the separating medium. 500 μL of a Bead Buffer (Invitrogen) was added for an incubation of 15 min, and the beads were then removed by a magnetic field. The mixture was washed once with a T cell culture medium, and resuspended with 8 mL of a culture medium. The resulting mixture was then incubated at 37° C. in presence of 6% CO₂.
According to the ratio of magnetic beads to CD4⁺ T cells equivalent to 1:1, anti-CD3/CD28 magnetic beads (Gibco) were added to CD4⁺ T cells for stimulation for 3 days. The cell density was adjusted to 1×10⁶/mL. The cells were loaded into a first well, 150 μL/well, and into other wells, 100 μL/well. […] The samples were mixed well. […] The mixture was resuspended in 60 μL of PBS and analyzed by flow cytometry. The flow cytometry was performed on an Accuri C6 system (BD Biosciences), and a concentration-dependent curve was fitted with GraphPad according to the mean fluorescence intensity (MFI).

human LAG-3-His [2] = target: T2, human LAG-3-His; experiment: BLI (ForteBio), antibody on AHQ tip, human LAG-3-His 100 nM in solution, univalent
Experimental: (§1) The purified antibody obtained as described above was loaded on-line onto an AHQ sensor (ForteBio) for ForteBio affinity assay. The sensor with the loaded antibody was then exposed to 100 nM of a human LAG-3 antigen (ArcoBiosystems) for 5 minutes before transferring the sensor to the assay buffer for dissociation for 5 minutes for dissociation rate measurement. Kinetic analysis was performed using a 1:1 binding model.

human LAG-3-His [3] = target: T2, human LAG-3-His; experiment: BLI (ForteBio), antibody on AHQ tip, human LAG-3-His 100 nM in solution
Experimental: as §1

[4] = target: T3, human LAG-3 overexpressed on HEK293 …; experiment: flow cytometry on 293-hLAG-3 cells, MFI curve
Experimental: The binding of the 4 exemplary antibodies of the invention described above to human LAG-3 was measured in a flow cytometry-based assay. 293 cells (293-hLAG-3 cells) over-expressing human LAG-3 were generated by transfecting human embryonic kidney 293 cells (Invitrogen) with pCHO1.0 vectors (Invitrogen) carrying human LAG-3 cDNA (Sino Biological) cloned into multiple cloning sites (MCSs). 293-hLAG-3 cells (0.2×10⁶ cells) were mixed with different concentrations of antibodies (ADI-26789, ADI-26869 and reference 25F7) prepared as described above (the antibodies were serially three-fold diluted from a maximum concentration of 500 nM in PBS containing 0.1% bovine serum albumin (BSA) until the 8th concentration). The cells were incubated on ice for 30 min. The cells were then washed at least twice prior to addition of a secondary antibody (a PE-labeled goat anti-human IgG antibody, Southern Biotech, final concentration […]) diluted in 1:100, and incubated on ice (protected from light) for 30 minutes. The cells were washed at least twice and analyzed by flow cytometry. The flow cytometry assay was performed on an Accuri C6 system (BD Biosciences), and a concentration-dependent curve was fitted with GraphPad according to the mean fluorescence intensity (MFI).

| Binder | EC50 [1] [nM] | Kd (human LAG-3-His [2]) [nM] | koff (human LAG-3-His [3]) [s⁻¹] | kon (human LAG-3-His [3]) [M⁻¹ s⁻¹] | EC50 [4] [nM] |
| --- | --- | --- | --- | --- | --- |
| B1 | 0.013 | 0.606 | 0.0002 | 330000 | 0.501 |
| B2 | 0.011 | 0.622 | 0.0002 | 322000 | 0.433 |
